Laboratory results reported in US5559094A (Eli Lilly and Company, priority 1994, dated 1996).

Legend:
[1] = Near- and far-UV circular dichroism; format: physicochemical; conditions: mean residue ellipticity, variation of 3%
Method: Protein stock solutions were prepared by dissolving a known mass of protein in either 20 mM Tris or 50 mM sodium phosphate and 50 mM sodium chloride, pH 7.8, followed by zinc oxide addition to a final concentration of 0.5 mol Zn per mol of protein monomer. The pH of the solution was readjusted to pH 7.8 as needed. The protein stock concentrations were determined by UV absorbance using an AVIV model 14DS double-beam spectrophotometer. […] All circular dichroism measurements were obtained using an AVIV Model 62DS spectrometer (Lakewood, N.J.) with results reported as mean residue ellipticity (MRE) having units of deg.cm^2.dmol^-1.
All samples were measured by far-UV CD at 23° C. using a 0.01 cm CD cell. The signal at 224 nm was recorded as a function of either m-cresol or KSCN concentration.
To further explore secondary structure, the far-UV CD spectra were collected from 250 nm to 200 nm using a 0.01 cm cuvette. To gain insight into the environment of the aromatic and disulfide amino acids the near-UV CD spectra were collected from 350 to 250 nm using a 0.1 cm cell.

[2] = from NMR / x-ray crystallography literature; cited from earlier work
[3] = α-Helical analysis (CONTIN analysis from the circular dichroism spectra); format: physicochemical
Description: ^1 Determined by CONTIN analysis from the circular dichroism spectra.

[4] = Equilibrium ultracentrifugation (aggregation state); format: physicochemical; conditions: 0.5 mol of Zn per mol of protein; 20 mM Tris pH 7.8; protein 1.5 to 5 mg/ml
Method: Equilibrium ultracentrifugation data was collected at 22° C. at equally spaced radial intervals using a Beckman Model XLA analytical ultracentrifuge Fullterton, Calif. Standard 30 mm and 12 mm centerpieces along with custom-made 3 mm centerpieces all made from charcoal-filled epon were used. Raw data from the chart recorder was converted to concentration versus radius using the internal calibration factors of the scanner. The weight average molecular weight was calculated according to the equation:
MW=RT/(1-Vp)ω^2.1r.1/C.dC/dr
where R is the gas constant, T is the temperature, ω is the rotor speed, r is the radius, C is the concentration, .rho. is the solvent density, and assuming ideal solutions. […] Least squares smoothing methods were used to calculate C and dC/dr.

[5] = injection of an acidic solution; cited from earlier work

Substance | Circular Dichroism, Wavelength 224 nm [1] [deg.cm^2.dmol^-1] | Circular Dichroism, Wavelength 251 nm [1] [deg.cm^2.dmol^-1] | Circular Dichroism, Wavelength 276 nm [1] [deg.cm^2.dmol^-1] | % Helix Theoretical [2] [%] | % Helix Measured [3] [%] | aggregation state (weight average molecular weight) [4] | reduction of insulin absorption rate after injection [5] [%]
Zn + Human Insulin: human insulin sample with Zn [reference compound] | -10892 | -121 | -305 | 47 |  |  | 
Zn + asp^B1 gln^B13 Insulin: asp^B1 gln^B13 insulin sample with Zn | -14555 | -426 | -291 |  | 65 |  | 
Zn + m-cresol + Human Insulin: human insulin sample with Zn and m-cresol [reference compound] | -13488 | -425 | -335 |  |  |  | 
Zn + m-cresol + asp^B1 gln^B13 Insulin: asp^B1 gln^B13 insulin sample with Zn and m-cresol | -14092 | -431 | -384 |  | 64 |  | 
Zn-Asp^B1 insulin: Asp^B1 insulin containing 0.5 mol of Zn per mol of protein |  |  |  |  |  | hexamer | 
gln^B13 analog: literature insulin analog with gln at B13 that forms stable hexamers in the absence of Zn |  |  |  |  |  |  | 25
